{"source": "patent US20180298101A1", "about": "(published 2018)", "binders": {"B1": {"name": "JAK1 activation loop phosphopeptide (Tyr1034 phosphorylated) (peptide)", "peptide": "AIETDKE[pY]YTVKDDRD"}, "B2": {"name": "IL-2Rβ cytoplasmic domain phosphopeptide (Tyr355 phosphorylated) (peptide)", "peptide": "CQV[pY]FTYDPYSE"}, "B3": {"name": "JAK1-Y1034 phosphopeptide with an alanine substitution at the +3 position (peptide)", "peptide": "AIETDKE[pY]YTAKDDRD"}, "B4": {"name": "IL-2Rβ cytoplasmic domain phosphopeptide (Tyr392 phosphorylated) (peptide)", "peptide": "DDA[pY]CTFPSRDD"}, "B5": {"name": "IL-2Rβ cytoplasmic domain phosphopeptide (Tyr361 phosphorylated) (peptide)", "peptide": "YDP[pY]SEEDPDEG"}, "B6": {"name": "JAK1-Y1034 phosphopeptide with an alanine substitution at the +5 position (peptide)", "peptide": "AIETDKE[pY]YTVKADRD"}, "B7": {"name": "JAK3 activation loop phosphopeptide (Tyr980 phosphorylated) (peptide)", "peptide": "LLPLDKDYYVVREPGQ", "modifications": "not fully specified (residue 8)"}, "B8": {"name": "JAK1-Y1034 phosphopeptide with an alanine substitution at the -3 position (peptide)", "peptide": "AIETAKE[pY]YTVKDDRD"}}, "experiment_in_all_cases": "ITC", "key": {"[1]": {"molecular_target": "T1, hCIS-SH2-BC complex (ternary complex of human GST-CIS-SH2 construct, residues 66-258 with PEST region 174-202 … (UniProt Q9NSE2 66-258; Q15370 1-118; P83940 17-112)"}, "[2]": {"molecular_target": "human CIS lacking the PEST motif (ΔPEST) in trimeric complex with elongin B and elongin C (UniProt Q9NSE2 1-258; Q15370 1-118; Q15369 17-112)"}, "[3]": {"molecular_target": "T2, human CIS lacking both the N-terminal region (residues 1-66) and the PEST motif (ΔNT/ΔPEST) in trimeric … (UniProt Q9NSE2 67-258; Q15370 1-118; Q15369 17-112)"}, "[4]": {"molecular_target": "human full-length CIS in trimeric complex with elongin B and elongin C (UniProt Q9NSE2 1-258; Q15370 1-118; Q15369 17-112)"}, "[5]": {"molecular_target": "T2, human CIS lacking both the N-terminal …", "remark": "listed apart in the source"}, "[6]": {"molecular_target": "T1, hCIS-SH2-BC complex (ternary complex of …)", "remark": "listed apart in the source"}}, "note": "Read-outs that look alike come from different tables or passages of the source. Non-standard residues stand in square brackets, D forms with d. No end group written: not given here. pY = N[C@@H](Cc1ccc(OP(=O)(O)O)cc1)C(=O)O"}
{"binder": "B1", "values": [{"measurement": "Kd", "setting": "[1]", "result": 2100, "unit": "nM"}, {"measurement": "Kd", "setting": "[2]", "result": 5300, "unit": "nM"}, {"measurement": "Kd", "setting": "[3]", "result": 2200, "unit": "nM"}, {"measurement": "Kd", "setting": "[4]", "result": 5300, "unit": "nM"}, {"measurement": "Kd", "setting": "[5]", "result": 2200, "unit": "nM"}]}
{"binder": "B2", "values": [{"measurement": "Kd", "setting": "[6]", "result": 940, "unit": "nM"}, {"measurement": "Kd", "setting": "[1]", "result": 940, "unit": "nM"}]}
{"binder": "B3", "values": [{"measurement": "Kd", "setting": "[5]", "result": 8300, "unit": "nM"}]}
{"binder": "B4", "values": [{"measurement": "Kd", "setting": "[6]", "result": 1800, "unit": "nM"}, {"measurement": "Kd", "setting": "[1]", "result": 1800, "unit": "nM"}]}
{"binder": "B5", "values": [{"measurement": "Kd", "setting": "[6]", "result": 1500, "unit": "nM"}, {"measurement": "Kd", "setting": "[1]", "result": 1500, "unit": "nM"}]}
{"binder": "B6", "values": [{"measurement": "Kd", "setting": "[5]", "result": 6300, "unit": "nM"}]}
{"binder": "B7", "values": [{"measurement": "Kd", "setting": "[1]", "result": 800, "unit": "nM"}]}
{"binder": "B8", "values": [{"measurement": "Kd", "setting": "[5]", "result": 3500, "unit": "nM"}]}
